Laboratory results from paper PMC6631453, “Set-Up and Validation of a High Throughput Screening Method for Human Monoacylglycerol Lipase (MAGL) Based on a New Red Fluorescent Probe” (Molecules, 2019).

Assays:
[1] = target: T1, human recombinant monoacylglycerol lipase (hMAGL) (Homo sapiens, UniProt Q99685); experiment: fluorogenic hydrolysis at […], normalized to 1c; format: biochemical
T1 construct: gene MGLL
T1 sequence (Q99685 1-303): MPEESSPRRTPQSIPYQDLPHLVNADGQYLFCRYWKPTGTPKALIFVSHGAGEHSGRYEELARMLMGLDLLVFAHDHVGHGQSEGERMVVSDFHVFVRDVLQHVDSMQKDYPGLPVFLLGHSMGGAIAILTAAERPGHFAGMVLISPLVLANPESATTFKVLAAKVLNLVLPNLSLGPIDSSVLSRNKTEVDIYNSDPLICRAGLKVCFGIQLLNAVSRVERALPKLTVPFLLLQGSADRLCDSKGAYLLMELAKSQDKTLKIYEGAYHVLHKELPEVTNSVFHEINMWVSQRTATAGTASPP

[2] = target: T1, human recombinant monoacylglycerol lipase (hMAGL); experiment: fluorogenic assay with substrate 1c, […] min pre-incubation; format: biochemical
[3] = substrate: CCCCC(CC)C(=O)Oc1ccc2nc3ccc(=O)cc-3oc2c1; experiment: fluorogenic hydrolysis kinetics (Km), low Vmax; format: biochemical, Homo sapiens
[4] = substrate: CCCCC(C)C(=O)Oc1ccc2nc3ccc(=O)cc-3oc2c1; experiment: fluorogenic hydrolysis kinetics (Km); format: biochemical, Homo sapiens
[5] = substrate: CCCCCCCC/C=C\CCCCCCCC(=O)Oc1ccc2nc3ccc(=O)cc-3oc2c1; experiment: fluorogenic hydrolysis kinetics (Km); format: biochemical, Homo sapiens
[6] = substrate: CCCCCCCCCCCC(=O)Oc1ccc2nc3ccc(=O)cc-3oc2c1; experiment: fluorogenic hydrolysis kinetics (Km); format: biochemical, Homo sapiens
[7] = substrate: CCCCCCC(CCCC)C(=O)Oc1ccc2nc3ccc(=O)cc-3oc2c1; experiment: fluorogenic hydrolysis kinetics (Km), very low Vmax; format: biochemical, Homo sapiens
purified protein = substrate: CCCCCCCC(=O)Oc1ccc2nc3ccc(=O)cc-3oc2c1; experiment: purified protein; format: biochemical, Homo sapiens

CCCCC/C=C\C/C=C\C/C=C\C/C=C\CCCC(=O)Oc1ccc2nc3ccc(=O)cc-3oc2c1 [1g, 7-hydroxyresorufinyl arachidonate]
fluorogenic hydrolysis at 5 μM, normalized to 1c [1]: Normalized hydrolysis of different substrates by hMAGL.

O=C(Nc1cccc(-c2ccccc2)c1)OC1CCCCC1 [URB602]
IC50 [2]: 8.1 µM

B1: human recombinant monoacylglycerol lipase (hMAGL) (Homo sapiens) (protein)
chain: MPEESSPRRTPQSIPYQDLPHLVNADGQYLFCRYWKPTGTPKALIFVSHGAGEHSGRYEELARMLMGLDLLVFAHDHVGHGQSEGERMVVSDFHVFVRDVLQHVDSMQKDYPGLPVFLLGHSMGGAIAILTAAERPGHFAGMVLISPLVLANPESATTFKVLAAKVLNLVLPNLSLGPIDSSVLSRNKTEVDIYNSDPLICRAGLKVCFGIQLLNAVSRVERALPKLTVPFLLLQGSADRLCDSKGAYLLMELAKSQDKTLKIYEGAYHVLHKELPEVTNSVFHEINMWVSQRTATAGTASPP
Km [3]: 2.8 µM | Vmax [3]: 0.0013 µmol/min/mg | Km [4]: 1.09 µM | Vmax [4]: 0.033 µmol/min/mg | Km [5]: 0.42 µM | Vmax [5]: 0.013 µmol/min/mg | Km [6]: 0.31 µM | Vmax [6]: 0.024 µmol/min/mg | Km [7]: 1.1 µM | Vmax [7]: 0.00067 µmol/min/mg | Km (purified protein): 0.66 µM | Vmax (purified protein; catalytic active site near Ser122 (docking only)): 0.106 µmol/min/mg
